Assay results as given in patent US20230248800A1 (PHARMAIN, published 2023).
Read-outs that look alike come from different tables or passages of the source.

B1: Mpa-Tyr-Phe-Hgn-Asn-Cys-Pro-dLys-Gly-NH2 (note: dLys = D-Lys) [SEQ ID NO. 18] (peptide)
peptide: XFXNCPKG
modifications: Mpa at position 1, disulfide bond between Mpa and Cys; Hgn at position 4; D-Lys at position 8; C-terminal amide
B2: Mpa-Tyr-Phe-Hgn-Asn-Cys-Pro-Lys(X)a-Gly-NH2; (X)a = (Gly)9-Ac [SEQ ID NO. 26] (peptide)
peptide: XFXNCPXG
modifications: Mpa at position 1, disulfide bond between Mpa and Cys; Hgn at position 4; (Gly)9-Ac on the side chain of Lys 8; C-terminal amide
B3: Mpa-Tyr-Phe-Hgn-Asn-Cys-Pro-Lys(X)a-Gly-NH2; (X)a = Lauric acid [SEQ ID NO. 27] (peptide)
peptide: XFXNCPXG
modifications: Mpa at position 1, disulfide bond between Mpa and Cys; Hgn at position 4; lauric acid on the side chain of Lys 8; C-terminal amide
B4: Mpa-Tyr-Phe-Hgn-Asn-Cys-Pro-Dap-Gly-NH2 [SEQ ID NO. 17] (peptide)
peptide: XFXNCPXG
modifications: Mpa at position 1, disulfide bond between Mpa and Cys; Hgn at position 4; Dap at position 8; C-terminal amide
B5: Mpa-Tyr-Phe-Gln-Asn-Cys-Pro-Lys(X)a-Gly-NH2; (X)a = (Gly)9 [SEQ ID NO. 23] (peptide)
peptide: XFQNCPXG
modifications: Mpa at position 1, disulfide bond between Mpa and Cys; (Gly)9 on the side chain of Lys 8; C-terminal amide
B6: Mpa-Tyr-Phe-Hgn-Asn-Cys-Pro-Lys(12-aminododecanoic acid)-Gly-NH2 [SEQ ID NO. 19] (peptide)
peptide: XFXNCPXG
modifications: Mpa at position 1, disulfide bond between Mpa and Cys; Hgn at position 4; 12-aminododecanoic acid on the side chain of Lys 8; C-terminal amide
B7: Mpa-Tyr-Phe-Gln-Asn-Cys-Pro-Lys(X)a-Gly-NH2; (X)a = (Gly)6 [SEQ ID NO. 20] (peptide)
peptide: XFQNCPXG
modifications: Mpa at position 1, disulfide bond between Mpa and Cys; (Gly)6 on the side chain of Lys 8; C-terminal amide
B8: Mpa-Tyr-Phe-Hgn-Asn-Cys-Pro-Lys(X)a-Gly-NH2; (X)a = Ac [SEQ ID NO. 28] (peptide)
peptide: XFXNCPXG
modifications: Mpa at position 1, disulfide bond between Mpa and Cys; Hgn at position 4; acetyl (Ac) on the side chain of Lys 8; C-terminal amide
B9: Mpa-Tyr-Phe-Hgn-Asn-Cys-Pro-Lys(X)a-Gly-NH2; (X)a = Dap [SEQ ID NO. 29] (peptide)
peptide: XFXNCPXG
modifications: Mpa at position 1, disulfide bond between Mpa and Cys; Hgn at position 4; Dap on the side chain of Lys 8; C-terminal amide
B10: Mpa-Tyr-Phe-Hgn-Asn-Cys-Pro-Lys-Gly-NH2 [SEQ ID NO. 25] (peptide)
peptide: XFXNCPKG
modifications: Mpa (mercaptopropionic acid) at position 1, disulfide bond between Mpa and Cys; Hgn (homoglutamine) at position 4; C-terminal amide

Tests used:
human V1a receptor [1] = target: T1, human V1a receptor (human, UniProt P37288 1-418); assay: cell-based or functional assay
T1 sequence (P37288 whole entry): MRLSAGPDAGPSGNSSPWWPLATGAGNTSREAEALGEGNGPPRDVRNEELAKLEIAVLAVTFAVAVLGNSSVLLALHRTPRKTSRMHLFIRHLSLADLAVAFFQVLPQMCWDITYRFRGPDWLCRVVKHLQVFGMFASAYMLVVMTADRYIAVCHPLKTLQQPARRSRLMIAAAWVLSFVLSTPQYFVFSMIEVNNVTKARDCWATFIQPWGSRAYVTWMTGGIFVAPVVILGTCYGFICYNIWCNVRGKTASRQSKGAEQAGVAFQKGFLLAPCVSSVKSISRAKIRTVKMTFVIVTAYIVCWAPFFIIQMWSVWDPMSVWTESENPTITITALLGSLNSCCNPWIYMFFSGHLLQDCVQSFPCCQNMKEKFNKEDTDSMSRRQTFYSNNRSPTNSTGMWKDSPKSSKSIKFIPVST

human V1a receptor [2] = target: T1, human V1a receptor; assay: cell-based or functional assay; remark: listed apart in the source

Binder	Estimated V1a EC50 (calcium flux) (human V1a receptor [1]) [nM]	V1a Highest agonist effect (% of AVP) (human V1a receptor [1])	Estimated V1a EC50 (calcium flux) (human V1a receptor [2]) [nM]
B1	> 10000	0.2 % of AVP	–
B2	> 10000	40 % of AVP	–
B3	> 10000	–	–
B4	> 10000	3.5 % of AVP	–
B5	–	–	12.6
B6	> 10000	2.5 % of AVP	–
B7	–	–	27.3
B8	> 10000	30 % of AVP	–
B9	1340	7.5 % of AVP	–
B10	5.2	42.8 % of AVP	–
